Several values for one entry are separate records, joined by “and”; a condition that tells them apart may be missing. Equal values may be shown once.
How the values were obtained:
[1] = system: rabbit DED model; test: Corneal fluorescein staining (CFS) score, rabbit DED model; type: in vivo; settings: for dynamic slope of the CFS score change: from Day 1 to Day 10
Description: The rabbit DED model was induced by locally administrating 0.1% benzalkoniumchloride (BAC) drops (Sigma, St. Louis, MO, USA) twice a day (8 a.m. and 4 p.m.). Before the BAC treatment, the control group (baseline, naive) underwent standard dry eye clinical tests such as the Schirmer tear test (STT), TBUT, and corneal staining score (CSS) test. After the BAC treatment, the induction of dry eye syndrome was confirmed, and the test substance was administered for 10 days while maintaining the induction of dry eye syndrome. […] The test substance was locally applied bis in die (BID) to both eyes.
The subjects were evaluated by corneal staining, and the abnormal findings of the eyelids, cornea, and conjunctiva were recorded. After dropping 1 μL of the 1% fluorescent dye solution and washing with saline solution, and the cornea was observed under a slit-lamp microscope and scored to evaluate the degree of epithelial damage (degree of fluorescent staining).

[2] = Stability of eye drop formulations stored at 40° C., RP-HPLC; type: physicochemical
Description: Eye drops using (PEG)-BHD1028 were prepared by setting eye characteristics, pH, osmolarity, and viscosity as important parameters. To adjust the above parameters, various reagents and substances were added to the test formulation, which was stored at 40° C. to confirm the stability of the formulation. In addition, the reagents used in the target preparation were mainly determined by considering the stability of the drug and the suitability of the manufacturing process. The stability of the formulation was determined based on the RP-HPLC analysis data. The shelf life was set as the period before a single impurity reached 1.0 area %, reflecting the mean kinetic temperature (MKT).
The shelf life was calculated based on the stability data reflecting the mean kinetic temperature (MKT). […] Based on this calculation, the lifespan was calculated by multiplying the number of days immediately before the area % of a single impurity reached 1.0% by a factor of 5. The target shelf life was set at 6 months or longer at 25° C., and the stability of the trehalose-only formulation is expected to have a shelf life of about 7 months.

[3] = Stability according to pH, HPLC residual amount at 40±2° C.; type: physicochemical; settings: for Residual amount: 40±2° C.
Description: To evaluate the stability of eye drops according to pH, a 10 mM pH buffer [10 mM sodium phosphate buffer+0.02% sodium azide (pH 5.5, pH 6.0, pH 6.5, pH 7.0) or a 10 mM PBS+WELGENE fresh media 10×PBS (pH 7.4)] was mixed with (PEG)-BHD1028 and the resulting mixture was incubated at 40±2° C., and then the stability was evaluated through an HPLC analysis. As a result of the evaluation, there was no significant difference in the residual amount between the formulation prepared at pH 6.5, which was set as the target pH of the eye drops, and the formulation prepared at 7.0, which was the average pH of the eyes, as shown in Table 4 below.

[4] = Osmotic pressure of trehalose-mannitol composite formulations; type: physicochemical; settings: trehalose-mannitol composite formulation
Description: The osmotic pressure of the trehalose-only formulations according to the (PEG)-BHD1028 content (see Table 5) and the osmotic pressure of the trehalose-mannitol composite formulations according to the (PEG)-BHD1028 content (see Table 6) were measured, and reflecting the experimental results, the osmolarity including the 0.5% (PEG)-BHD1028 concentration was adjusted to about 300 mOsm/kg.

[5] = system: apoptotic cells in cornea and conjunctiva; test: Apoptotic cells by TUNEL, rabbit model; type: in vivo; settings: for cell death rate in the conjunctiva: Day 10; for percentage of apoptotic cells per unit area, cornea: after 10 days
Description: The eyes and appendages from each group were excised, fixed in the modified Davidson's solution, and embedded in paraffin, and the tissue sections were TUNEL-stained. In each section, the degree of apoptosis in the cornea and conjunctiva was measured using ZEN (Zeiss, Oberkochen, Germany) and Image J v1.51j8 (NIH, Bethesda, MD, USA) software programs.
The percentage of the apoptotic cells per unit area was evaluated after 10 days in the rabbit model. In the cornea, apoptotic cells were detected at a percentage of 35±6% in the normal control group and 74±2% in the vehicle group. In the 0.1%, 0.2%, and 0.4% (PEG)-BHD1028 treatment groups, the percentage was 40±12%, 39±3%, and 35±4%, respectively. […] In addition, the cell death rate in the conjunctiva was 7±5% in the normal control group and 56±4% in the vehicle group. The percentage in the 0.1%, 0.2% and 0.4% (PEG)-BHD1028 treatment groups was 35±4%, 26±3% and 19±4% on Day 10.

NH2-Tyr-Tyr-Phe-Ala-Tyr-His-Pro-Asn-Ile-Pro-Gly-Leu-Tyr-Tyr-Phe-COOH (H-YYFAYHPNIPGLYYF-OH; also: PEGylated, site not given here (mPEG), acetate salt) [(PEG)-BHD1028]
CFS ([1]; rabbit DED, 0.1% BID, Day 5): 7.17 ± 1.21 score | CFS ([1]; rabbit DED, 0.1% BID, Day 10): 6.67 ± 0.56 score | CFS ([1]; rabbit DED, 0.2% BID, Day 5): 6.83 ± 0.64 score | CFS ([1]; rabbit DED, 0.2% BID, Day 10): 6.17 ± 0.55 score | CFS ([1]; rabbit DED, 0.4% BID, Day 5): 5.67 ± 0.38 score | CFS ([1]; rabbit DED, 0.4% BID, Day 10): 3.83 ± 0.64 score | CFS ([1]; rabbit, 0.1% group, Baseline (before BAC treatment)): 0.00 ± 0.00 score | CFS ([1]; rabbit, 0.1% group, Day 0 (EDE), before treatment): 6.67 ± 0.30 score | CFS ([1]; rabbit, 0.2% group, Baseline (before BAC treatment)): 0.00 ± 0.00 score | CFS ([1]; rabbit, 0.2% group, Day 0 (EDE), before treatment): 9.17 ± 0.37 score | dynamic slope of the CFS score change ([1]; rabbit, 0.2%): −0.42 | CFS ([1]; rabbit, 0.4% group, Baseline (before BAC treatment)): 0.00 ± 0.00 score | CFS ([1]; rabbit, 0.4% group, Day 0 (EDE), before treatment): 8.00 ± 0.62 score | mean CFS score lower than that of the 0.05% cyclosporine treated animals ([1]; rabbit, 0.4%, Day 10, p=0.0558): approximately 46% | dynamic slope of the CFS score change ([1]; rabbit, 0.4%): −0.33 | formulation stability ([2]; eye drops with sodium EDTA (0.5%), 40° C. for 25 days): stability was maintained | formulation stability (impurities) ([2]; eye drops with sodium bisulfate (0.03%), Day 7 at 40° C.): impurities rapidly increased | impurities ([2]; eye drops with sodium hyaluronate 0.1%, 40° C. for 37 days, all impurities): less than 1.0 area % | formulation stability and pH, water versus PBS as diluent ([2]; eye drops, between the two formulations): no significant difference in stability data and pH | formulation stability ([2]; formulations including PEG (PEG400, PEG5000, PEG3350) as osmotic reagent): considerably decomposed | formulation stability ([2]; formulations including salts such as KCl and NaCl, Day 6 at 40° C.): considerably decomposed | formulation stability ([2]; mannitol, trehalose, or a combination of mannitol and trehalose as osmotic reagent): stable | Residual amount ([3]; PBS (pH 7.4), Day 0): 100.0% | Residual amount ([3]; PBS (pH 7.4), Day 1): 97.1% | Residual amount ([3]; PBS (pH 7.4), Day 3): 92.3% | Residual amount ([3]; PBS (pH 7.4), Day 7): 89.9% | Residual amount ([3]; pH 5.5, Day 0): 100.0% | Residual amount ([3]; pH 5.5, Day 1): 98.4% | Residual amount ([3]; pH 5.5, Day 3): 97.2% | Residual amount ([3]; pH 5.5, Day 7): 96.6% | Residual amount ([3]; pH 6.0, Day 0): 100.0% | Residual amount ([3]; pH 6.0, Day 1): 99.8% | Residual amount ([3]; pH 6.0, Day 3): 99.0% | Residual amount ([3]; pH 6.0, Day 7): 98.1% | Residual amount ([3]; pH 6.5, Day 0): 100.0% | Residual amount ([3]; pH 6.5, Day 1): 99.7% | Residual amount ([3]; pH 6.5, Day 3): 98.7% | Residual amount ([3]; pH 6.5, Day 7): 97.3% | Residual amount ([3]; pH 7.0, Day 0): 100.0% | Residual amount ([3]; pH 7.0, Day 1): 99.2% | Residual amount ([3]; pH 7.0, Day 3): 98.7% | Residual amount ([3]; pH 7.0, Day 7): 94.9% | most stable pH within the pH range of normal tears ([3]; pH range 6.5 to 7.6): 6.5 | osmotic pressure, Mean ([4]; 0.5%): 301.00 mOsm/kg | osmotic pressure, single measurements #1-#3 ([4]; 0.5%): 301 mOsm/kg and 399 mOsm/kg and 303 mOsm/kg | osmotic pressure, Mean ([4]; 1.5%): 309.33 mOsm/kg | osmotic pressure, single measurements #1-#3 ([4]; 1.5%): 309 mOsm/kg and 312 mOsm/kg and 307 mOsm/kg | osmotic pressure, Mean ([4]; 4.5%): 338.33 mOsm/kg | osmotic pressure, single measurements #1-#3 ([4]; 4.5%): 338 mOsm/kg and 339 mOsm/kg | cell death rate in the conjunctiva ([5]; 0.1%): 35±4% | percentage of apoptotic cells per unit area, cornea ([5]; 0.1%): 40±12% | cell death rate in the conjunctiva ([5]; 0.2%): 26±3% | percentage of apoptotic cells per unit area, cornea ([5]; 0.2%): 39±3% | cell death rate in the conjunctiva ([5]; 0.4%): 19±4% | percentage of apoptotic cells per unit area, cornea ([5]; 0.4%): 35±4%

— US20240408167A1, “COMPOSITION FOR TREATING OCULAR DISEASES CONTAINING PEPTIDE” (Encuragen Inc., priority 2023, published 2024)
